In publication doi:10.1101/2024.08.22.609182:

Target: AIFM1 OM (obligate monomeric AIFM1 variant, triple mutant in the dimerisation interface) (human) (UniProt O95831)
Assay: mass photometry

Sequence of AIFM1 OM (obligate monomeric AIFM1 variant, triple mutant in the dimerisation interface) (human) (O95831 102-613, change not shown): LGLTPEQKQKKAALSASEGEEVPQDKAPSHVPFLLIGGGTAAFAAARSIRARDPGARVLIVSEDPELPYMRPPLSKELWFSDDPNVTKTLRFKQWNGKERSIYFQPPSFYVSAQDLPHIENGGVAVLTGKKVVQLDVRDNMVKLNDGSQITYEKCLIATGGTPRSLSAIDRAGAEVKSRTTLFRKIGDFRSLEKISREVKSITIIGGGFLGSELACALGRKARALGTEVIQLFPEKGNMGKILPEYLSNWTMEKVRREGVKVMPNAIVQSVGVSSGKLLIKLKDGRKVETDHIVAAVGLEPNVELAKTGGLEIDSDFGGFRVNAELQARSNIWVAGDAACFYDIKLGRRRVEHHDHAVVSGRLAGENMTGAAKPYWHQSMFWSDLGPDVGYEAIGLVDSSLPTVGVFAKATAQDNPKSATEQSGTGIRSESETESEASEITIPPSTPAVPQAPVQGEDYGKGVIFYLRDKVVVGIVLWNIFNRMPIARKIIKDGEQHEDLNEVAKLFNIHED

Substance: adenylate kinase 2 (AK2), recombinant human (from UniProt P54819 1-239) (enzyme)
- stoichiometry N (AK2 per AIFM1 (printed as 1:1)): 1
